The results in this text go back to US20140134155A1 (TECHNISCHE UNIVERSIT T DRESDEN, published 2014).

Test [1] deals with T1, prostate-specific stem cell antigen (PSCA) (human, UniProt O43653 12-83).
T1 sequence (looked up): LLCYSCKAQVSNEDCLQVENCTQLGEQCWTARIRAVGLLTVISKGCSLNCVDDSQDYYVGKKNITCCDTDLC
Nature of the test: cell-based or functional assay.

Test [2] has as its target T2, prostate-specific stem cell antigen (PSCA) (human) (UniProt O43653).
T2 sequence (looked up): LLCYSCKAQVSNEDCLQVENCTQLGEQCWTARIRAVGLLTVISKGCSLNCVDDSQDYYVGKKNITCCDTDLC
Nature of the test: cell-based or functional assay.

B1: humanized bispecific scBsTaFv CD3-PSCA(MB1) (bispecific antibody)
chain: QVQLVQSGAEVKKPGASVKVSCKASGYTFTKYVIHWVRQAPGQGLEWMGYINPYNDVSKYNEKFRGRVTMTTDTSTSTAYMELRSLRSDDTAVYYCARNKDYYPMDYWGQGTTVTVSGGGGSGGGGSGGGGSEIVLTQSPATLSLSPGERATLSCSASSSVSYMHWYQQKPGQAPRLLIYDTSKLASGIPARFSGSGSGTDFTLTISSLEPEDFAVYYCQQWSSNPLTFGGGTKVEIKDIQMTQSPSSLSASVGDRVTITCGTSQDINNYLNWYQQKPGKVPKLLIYYTSRLHSGVPSRFSGSGSGTDFTLTISSLQPEDVATYYCQQSKTLPWTFGGGTQLTVLGGGGSGGGGSGASAAGGGGSGGGGSQVQLVESGGGLVKPGGSLRLSCAASGFTFSSYSMSWIRQAPGKGLEWVSYINDSGGSTFYPDTVKGRFTISRDNAKNSLYLQMNSLRAEDTAVYYCARRMYYGNSHWHFDVWGQGTTVTVSS
As to B1, the “specific lysis of 51Cr-loaded PC3-PSCA tumor cells (chrome release test, effector target ratio 10:1, 20 h)” value in test [1] was > 90%.

B2: murine bispecific scBsTaFv CD3-PSCA(MB1) (bispecific antibody, part only; not given: anti-CD3 scFv and tags, not shown: small tags and cut ends)
chain, part: VQLQESGGVLVQPGGSLKLSCAASGFTFSSYSMSWIRQTPDRRLEWVAYINDSGGSTFYPDTVKGRFSISRDNAKNTLYLQISRLRSGDTAIYYCSRRMYYGNSHWHFDVWGAGTTVTVSSGGGGSGGGGSGGGGSDIVMTQSTSSLSASLGDRVTINCGTSQDINNYLNWYQQKPDGSVKLLIYYTSRLHSGVPSRFSGSGSGTDYSLTISNLEQGDIATYFCQQSKTLPWTFGGGTKLELKRADAAPTVS
In the case of B2, in test [2], the antibody amount giving strong lysis of PSCA-positive cells (chrome release test) was < 1 ng and the specific lysis of 51Cr-loaded PC3-PSCA tumor cells (chrome release test) was determined as 80%.

B3: murine bispecific scBsTaFv CD3-PSCA(7F5) (bispecific antibody, part only; not given: anti-CD3 scFv, linkers, tags, part only)
chain, part: QVKLQESGGGLVQPGGSLKLSCVASGFTFSSYTMSWVRRTPEKRLEWVAYIHNGGGHTYYPDTIKGRFTISRDNAKNTLFLEMSSLKSEDTAMYYCTRRMYYGNSHWYFDVWGAGTSVTVSDIQMTQSPSSLSASVGDRVTITCRTSQDISNYLNWYQQKPGKAPKLLIYYTLKLNSGVPSRFSGSGSGTDFTFTISSLQPEDIATYYCQQSKTLPWTFGGGTKVEIK
B3 came in with a specific lysis of 51Cr-loaded PC3-PSCA tumor cells (chrome release test) in test [2] of 60%.
